In one data set the test system is T1, Suc-Ile-Ala-Leu-Dox.
T1 sequence: XAX

The subject of the next data set is T2, Suc-Leu-Ala-Gly-Dox.
T2 sequence: XAX

The test system of another data set is T3, Suc-Leu-Ala-Leu-Dox.
T3 sequence: XAX

The next data set concerns T4, Suc-Leu-Tyr-Leu-Dox.
T4 sequence: XYX

The test system of another data set is T5, Suc-Met-Ala-Leu-Dox.
T5 sequence: XAX

For another data set, the system named is T6, Suc-βAla-Ile-Ala-Leu-Dox.
T6 sequence: XIAX

A further data set has as its system T7, Suc-βAla-Leu-Ala-Leu-Dox.
T7 sequence: XLAX

The subject of the next data set is T8, Suc-βAla-Leu-Ala-Leu-pNA.
T8 sequence: XLAX

The subject of another data set is T9, Suc-βAla-Leu-Tyr-Leu-Dox.
T9 sequence: XLYX

Where [1] appears, read: scale: fraction relative to Suc-βAla-Leu-Ala-Leu-Dox.

“purified Porcine Kidney CD10 (Elastin Products Company)”: the % hydrolysis/10 hr (% hydrolysis/10 hr) in the data set on Suc-Ile-Ala-Leu-Dox worked out at 12.5; with Suc-Leu-Ala-Gly-Dox, 0; with Suc-Leu-Ala-Leu-Dox it was 8.3; in the data set with Suc-Leu-Tyr-Leu-Dox, 0; in the data set with Suc-Met-Ala-Leu-Dox, 37.7; in the data set on Suc-βAla-Ile-Ala-Leu-Dox, 22.1. The % hydrolysis/10 hr (% hydrolysis/10 hr) is 10.9 with Suc-βAla-Leu-Ala-Leu-Dox and 0 in the data set on Suc-βAla-Leu-Tyr-Leu-Dox. Moreover, the “Cleaved by CD10” value with Suc-Ile-Ala-Leu-Dox is given as “+”; with Suc-Leu-Ala-Gly-Dox, “-”; in the data set with Suc-Leu-Ala-Leu-Dox, “+”; in the data set on Suc-βAla-Ile-Ala-Leu-Dox, “+”; with Suc-βAla-Leu-Ala-Leu-Dox, “+”. In addition, the Fraction hydrolyzed relative to standard with Suc-Ile-Ala-Leu-Dox (setting [1]) worked out at 1.1; with Suc-Leu-Ala-Gly-Dox (setting [1]) it was 0; in the data set with Suc-Leu-Ala-Leu-Dox (setting [1]) it was 0.75; with Suc-Leu-Tyr-Leu-Dox (setting [1]), 0; in the data set on Suc-Met-Ala-Leu-Dox (setting [1]), 3.5; in the data set on Suc-βAla-Ile-Ala-Leu-Dox (setting [1]) it was 2. For the same substance, the figures for the Fraction hydrolyzed relative to standard in the data set on Suc-βAla-Leu-Ala-Leu-Dox (setting [1]) and in the data set with Suc-βAla-Leu-Tyr-Leu-Dox (setting [1]) were 1 and 0, respectively. Further, the “rate of cleavage (release of Leu-pNA) relative to Suc-βAla-Leu-Ala-Leu-Dox (release of Leu-Dox)” value with Suc-βAla-Leu-Ala-Leu-pNA is on record as 590 times more rapidly cleaved.
Regarding thimet oligopeptidase, the “Cleavage by thimet oligopeptidase” value in the data set on Suc-Ile-Ala-Leu-Dox is listed as “-”; with Suc-Leu-Ala-Gly-Dox, “+”; with Suc-Leu-Ala-Leu-Dox, “+”; in the data set with Suc-βAla-Ile-Ala-Leu-Dox, “-”; in the data set on Suc-βAla-Leu-Ala-Leu-Dox it was “+”.
